Assay results reported in US20090130105A1 (Biogen, published 2009).

Assays:
Assay in all cases: SPR, Fab over captured mutant
[1] = target: T1, hIGF-1R-Fc mutant SD015 (H464E) (human, UniProt P08069 31-933)
T1 construct: not shown: human IgG1 Fc, C-terminal tag
Protocol: (§1) Surface plasmon resonance (SPR) experiments were performed on a Biacore 3000 instrument set to 25° C. […] The antibody sensorchip surfaces were prepared by injecting each antibody (diluted 100 μg/mL in 10 mM Acetate, pH 4.0) over EDC/NHS-activated sensorchip surfaces according to the standard protocol of the manufacturer. […] Both hIGF-1R-Fc and mIGF-1R-Fc proteins oligomerize due to the incorporation of two separate homodimeric regions (IGF-1R and IgG1-Fc). […] After, completion of the receptor-Fc loading step, flow rates were elevated to 5 μl/min. […] Dissociation was measured for 7 minutes after the antibody injections were complete. Finally, the flow rate was elevated to 30 μL/min and the chip surfaces were regenerated by 2×10 μL injections of 0.1 M glycine, pH 2.

[2] = target: T2, hIGF-1R-Fc mutant SD102 (E459A, S460A) (human, UniProt P08069 31-933)
T2 construct: not shown: human IgG1 Fc, C-terminal tag
Protocol: as §1

[3] = target: T3, hIGF-1R-Fc mutant SD103 (D461A, V462T) (human, UniProt P08069 31-933)
T3 construct: not shown: human IgG1 Fc, C-terminal tag
Protocol: as §1

[4] = target: T4, hIGF-1R-Fc mutant SD104 (H464A) (human, UniProt P08069 31-933)
T4 construct: not shown: human IgG1 Fc, C-terminal tag
Protocol: as §1

[5] = target: T5, hIGF-1R-Fc mutant SD108 (H480E) (human, UniProt P08069 31-933)
T5 construct: not shown: human IgG1 Fc, C-terminal tag
Protocol: as §1

[6] = target: T6, hIGF-1R-Fc mutant SD109 (Y482A, R483W) (human, UniProt P08069 31-933)
T6 construct: not shown: human IgG1 Fc, C-terminal tag
Protocol: as §1

[7] = target: T7, hIGF-1R-Fc mutant SD110 (E533H) (human, UniProt P08069 31-933)
T7 construct: not shown: human IgG1 Fc, C-terminal tag
Protocol: as §1

[8] = target: T8, hIGF-1R-Fc mutant SD113 (E570A, I571T) (human, UniProt P08069 31-933)
T8 construct: not shown: human IgG1 Fc, C-terminal tag
Protocol: as §1

T5 sequence (P08069 31-933 H510E): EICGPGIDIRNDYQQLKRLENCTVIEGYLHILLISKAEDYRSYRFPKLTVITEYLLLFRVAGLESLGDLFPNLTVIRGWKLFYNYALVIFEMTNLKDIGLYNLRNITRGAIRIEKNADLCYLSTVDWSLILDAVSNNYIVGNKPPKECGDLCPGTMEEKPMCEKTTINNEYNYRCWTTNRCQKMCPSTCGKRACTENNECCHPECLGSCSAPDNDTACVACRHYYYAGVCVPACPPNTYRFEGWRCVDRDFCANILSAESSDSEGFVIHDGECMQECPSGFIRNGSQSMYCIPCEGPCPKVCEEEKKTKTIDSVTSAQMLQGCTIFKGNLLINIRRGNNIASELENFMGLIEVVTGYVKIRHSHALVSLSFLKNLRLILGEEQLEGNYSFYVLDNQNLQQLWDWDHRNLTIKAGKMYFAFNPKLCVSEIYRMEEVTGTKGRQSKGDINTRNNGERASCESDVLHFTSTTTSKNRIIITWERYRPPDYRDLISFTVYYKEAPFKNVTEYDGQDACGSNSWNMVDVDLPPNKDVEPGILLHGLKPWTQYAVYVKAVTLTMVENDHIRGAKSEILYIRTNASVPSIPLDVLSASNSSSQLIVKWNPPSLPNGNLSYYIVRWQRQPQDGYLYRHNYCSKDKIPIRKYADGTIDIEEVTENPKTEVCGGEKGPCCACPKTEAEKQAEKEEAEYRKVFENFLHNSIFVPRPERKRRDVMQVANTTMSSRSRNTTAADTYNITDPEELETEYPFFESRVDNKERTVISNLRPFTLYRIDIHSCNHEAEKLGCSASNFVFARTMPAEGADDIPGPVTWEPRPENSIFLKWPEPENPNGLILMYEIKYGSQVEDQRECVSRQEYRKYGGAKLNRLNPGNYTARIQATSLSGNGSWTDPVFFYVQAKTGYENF
T7 sequence (P08069 31-933 E563H): as the sequence (P08069 31-933 H510E) above, with E480H, E533H counted along it
T6 sequence (P08069 31-933 Y512A/R513W): as the sequence (P08069 31-933 H510E) above, with E480H, Y482A, R483W counted along it
T2 sequence (P08069 31-933 E489A/S490A): as the sequence (P08069 31-933 H510E) above, with E459A, S460A, E480H counted along it
T3 sequence (P08069 31-933 D491A/V492T): as the sequence (P08069 31-933 H510E) above, with D461A, V462T, E480H counted along it
T4 sequence (P08069 31-933 H494A): as the sequence (P08069 31-933 H510E) above, with H464A, E480H counted along it
T1 sequence (P08069 31-933 H494E): as the sequence (P08069 31-933 H510E) above, with H464E, E480H counted along it
T8 sequence (P08069 31-933 E600A/I601T): as the sequence (P08069 31-933 H510E) above, with E480H, E570A, I571T counted along it

binding result [1]: no binding (tested: up to 30 nM Fab)
binding result [2]: no binding (tested: up to 30 nM Fab)
binding result [3]: no binding (tested: up to 30 nM Fab)
binding result [4]: no binding (tested: up to 30 nM Fab)
binding result [5]: no binding (tested: up to 30 nM Fab)
binding result [6]: no binding (tested: up to 30 nM Fab)
binding result [7]: no binding (tested: up to 30 nM Fab)
binding result [8]: no binding (tested: up to 30 nM Fab)
B1: M14-C03 Fab (Fab, V domains shown)
VH: EVQLLESGGGLVQPGGSLRLSCAASGFTFSKYMMSWVRQAPGKGLEWVSYISPSGGLTWYADSVKGRFTISRDNSKNTLYLQMNSLRAEDTAVYYCARDGARGYGMDVWGQGTTVTVSS
VL: DIQMTQSPATLSLSPGERATLSCRASQSVSSYLAWYQQKPGQAPRLLIYDASNRATGIPARFSGSGSGTDFTLTISSLEPEDFAVYYCQQRSNWPPEVTFGPGTKVDIK
notes: Enzymatically derived Fab
